The data set deals with the molecule itself. The data set is described as follows: transmission electron microscopy.

Results on 2 proteins are retold here after doi:10.1101/2023.07.16.549228 (bioRxiv, 2023).

B1: encapsulin from Thermotoga maritima (TmEnc) nanocage (natural protein)
chain: MEFLKRSFAPLTEKQWQEIDNRAREIFKTQLYGRKFVDVEGPYGWEYAAHPLGEVEVLSDENEVVKWGLRKSLPLIELRATFTLDLWELDNLERGKPNVDLSSLEETVRKVAEFEDEVIFRGCEKSGVKGLLSFEERKIECGSTPKDLLEAIVRALSIFSKDGIEGPYTLVINTDRWINFLKEEAGHYPLEKRVEECLRGGKIITTPRIEDALVVSERGGDFKLILGQDLSIGYEDREKDAVRLFITETFTFQVVNPEALILLKF
Turning to B1, the binding result was “binds”.

B2: Cy7-labelled TmEnc (TmEnc^Cy7) nanocage (natural protein, Thermotoga maritima)
chain: B1 chain
modifications: sulfo-Cy7 conjugated to lysine residues on the outer surface (~50 dye molecules per nanocage)
With B2, the binding result is “binds”.
